What follows are sequences tested on Escherichia coli TOP10 (assay: shrunken log2 fold change of peptide-encoding DNA abundance (4.5 h post-induction vs induction); higher = less antimicrobial activity (less host growth inhibition)). Conditions: time post-induction: 4.5 h; library: site-saturation at positions 5, 18, 19, 20.
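Further: peptides expressed intracellularly from a pBAD plasmid library in pooled LB shake-flask culture, induced with 0.3% L-arabinose, DNA abundance read by NGS, three biological replicates, DESeq2 with apeglm shrinkage.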

| Sequence | shrunken log2 fold change |
| --- | --- |
| RRIRNRPPRLPRPRPRPTSNPRP | -0.615 |
| RRIRNRPPRLPRPRPRPTTIPRP | -0.819 |
| RRIRNRPPRLPRPRPRPTTTPRP | 0.082 |
| RRIRNRPPRLPRPRPRPTVAPRP | 0.351 |
| RRIRNRPPRLPRPRPRPTVIPRP | 0.0591 |
| RRIRNRPPRLPRPRPRPVAAPRP | 0.359 |
| RRIRNRPPRLPRPRPRPVCKPRP | -0.0239 |
| RRIRNRPPRLPRPRPRPVCNPRP | -0.222 |
| RRIRNRPPRLPRPRPRPVEFPRP | -0.00441 |
| RRIRNRPPRLPRPRPRPVESPRP | -0.165 |
| RRIRNRPPRLPRPRPRPVFMPRP | -0.181 |
| RRIRNRPPRLPRPRPRPVFTPRP | -0.349 |
| RRIRNRPPRLPRPRPRPVHCPRP | -0.123 |
| RRIRNRPPRLPRPRPRPVITPRP | -0.662 |
| RRIRNRPPRLPRPRPRPVKIPRP | 0.0539 |
| RRIRNRPPRLPRPRPRPVLIPRP | -0.27 |
| RRIRNRPPRLPRPRPRPVLPPRP | -0.11 |
| RRIRNRPPRLPRPRPRPVLTPRP | -0.235 |
| RRIRNRPPRLPRPRPRPVMDPRP | 0.0106 |
| RRIRNRPPRLPRPRPRPVNNPRP | -0.647 |
| RRIRNRPPRLPRPRPRPVNQPRP | 0.214 |
| RRIRNRPPRLPRPRPRPVPDPRP | -0.0278 |
| RRIRNRPPRLPRPRPRPVPMPRP | -0.0134 |
| RRIRNRPPRLPRPRPRPVQCPRP | -0.0226 |
| RRIRNRPPRLPRPRPRPVQPPRP | 0.0494 |

| Sequence | shrunken log2 fold change |
| --- | --- |
| RRIRNRPPRLPRPRPRPVTFPRP | -0.356 |
| RRIRNRPPRLPRPRPRPVTSPRP | -0.469 |
| RRIRNRPPRLPRPRPRPVVIPRP | -0.077 |
| RRIRNRPPRLPRPRPRPVYIPRP | -0.434 |
| RRIRNRPPRLPRPRPRPVYQPRP | -0.00185 |
| RRIRNRPPRLPRPRPRPWCMPRP | -0.312 |
| RRIRNRPPRLPRPRPRPWCRPRP | -0.525 |
| RRIRNRPPRLPRPRPRPWDIPRP | -0.00804 |
| RRIRNRPPRLPRPRPRPWDRPRP | -0.0515 |
| RRIRNRPPRLPRPRPRPWFKPRP | -0.191 |
| RRIRNRPPRLPRPRPRPWFMPRP | 0.0336 |
| RRIRNRPPRLPRPRPRPWGAPRP | 0.0894 |
| RRIRNRPPRLPRPRPRPWHEPRP | -0.454 |
| RRIRNRPPRLPRPRPRPWIGPRP | -0.128 |
| RRIRNRPPRLPRPRPRPWKNPRP | 0.175 |
| RRIRNRPPRLPRPRPRPWMEPRP | -0.00208 |
| RRIRNRPPRLPRPRPRPWNVPRP | 0.00489 |
| RRIRNRPPRLPRPRPRPWPQPRP | -0.064 |
| RRIRNRPPRLPRPRPRPWQTPRP | 0.0295 |
| RRIRNRPPRLPRPRPRPWRFPRP | -0.0929 |
| RRIRNRPPRLPRPRPRPWSCPRP | -0.42 |
| RRIRNRPPRLPRPRPRPWTNPRP | -0.492 |
| RRIRNRPPRLPRPRPRPWTQPRP | -0.0178 |
| RRIRNRPPRLPRPRPRPWVGPRP | -0.065 |
| RRIRNRPPRLPRPRPRPWVVPRP | 0.0152 |

| Sequence | shrunken log2 fold change |
| --- | --- |
| RRIRNRPPRLPRPRPRPYATPRP | -0.145 |
| RRIRNRPPRLPRPRPRPYCGPRP | -0.352 |
| RRIRNRPPRLPRPRPRPYCNPRP | -0.672 |
| RRIRNRPPRLPRPRPRPYDAPRP | -0.066 |
| RRIRNRPPRLPRPRPRPYEFPRP | 0.121 |
| RRIRNRPPRLPRPRPRPYFGPRP | -0.284 |
| RRIRNRPPRLPRPRPRPYFNPRP | -1.51 |
| RRIRNRPPRLPRPRPRPYFSPRP | -0.225 |
| RRIRNRPPRLPRPRPRPYFVPRP | -0.312 |
| RRIRNRPPRLPRPRPRPYGNPRP | -0.287 |
| RRIRNRPPRLPRPRPRPYIHPRP | -0.387 |
| RRIRNRPPRLPRPRPRPYIIPRP | -0.156 |
| RRIRNRPPRLPRPRPRPYKVPRP | -0.324 |
| RRIRNRPPRLPRPRPRPYMFPRP | -0.216 |
| RRIRNRPPRLPRPRPRPYMTPRP | -0.509 |
| RRIRNRPPRLPRPRPRPYMYPRP | 0.0369 |
| RRIRNRPPRLPRPRPRPYNCPRP | -0.385 |
| RRIRNRPPRLPRPRPRPYPHPRP | -0.0269 |
| RRIRNRPPRLPRPRPRPYQHPRP | -0.549 |
| RRIRNRPPRLPRPRPRPYRDPRP | -0.0123 |
| RRIRNRPPRLPRPRPRPYSKPRP | -0.926 |
| RRIRNRPPRLPRPRPRPYVQPRP | -0.0341 |
| RRIRNRPPRLPRPRPRPYWFPRP | -0.124 |
| RRIRNRPPRLPRPRPRPYWYPRP | -0.177 |
| RRIRNRPPRLPRPRPRPYYRPRP | 0.0545 |

| Sequence | shrunken log2 fold change |
| --- | --- |
| RRIRPRPPRLPRPRPRPADDPRP | 0.118 |
| RRIRPRPPRLPRPRPRPADMPRP | 0.0113 |
| RRIRPRPPRLPRPRPRPAEAPRP | 0.103 |
| RRIRPRPPRLPRPRPRPAFAPRP | 0.374 |
| RRIRPRPPRLPRPRPRPAFHPRP | 0.189 |
| RRIRPRPPRLPRPRPRPAHDPRP | 6.73e-05 |
| RRIRPRPPRLPRPRPRPAHLPRP | 0.317 |
| RRIRPRPPRLPRPRPRPAIIPRP | -0.112 |
| RRIRPRPPRLPRPRPRPAKEPRP | 0.0354 |
| RRIRPRPPRLPRPRPRPAKHPRP | -0.023 |
| RRIRPRPPRLPRPRPRPAKLPRP | 0.0398 |
| RRIRPRPPRLPRPRPRPALKPRP | 0.128 |
| RRIRPRPPRLPRPRPRPALQPRP | 0.0721 |
| RRIRPRPPRLPRPRPRPAMIPRP | -0.26 |
| RRIRPRPPRLPRPRPRPAMTPRP | -0.085 |
| RRIRPRPPRLPRPRPRPANEPRP | 0.18 |
| RRIRPRPPRLPRPRPRPANGPRP | 0.0748 |
| RRIRPRPPRLPRPRPRPANRPRP | -0.125 |
| RRIRPRPPRLPRPRPRPANTPRP | -0.224 |
| RRIRPRPPRLPRPRPRPAPGPRP | 0.645 |
| RRIRPRPPRLPRPRPRPAPLPRP | 0.407 |
| RRIRPRPPRLPRPRPRPAQLPRP | 0.237 |
| RRIRPRPPRLPRPRPRPARFPRP | 0.383 |
| RRIRPRPPRLPRPRPRPATFPRP | -0.305 |
| RRIRPRPPRLPRPRPRPAWTPRP | 0.492 |

| Sequence | shrunken log2 fold change |
| --- | --- |
| RRIRPRPPRLPRPRPRPCADPRP | 0.213 |
| RRIRPRPPRLPRPRPRPCAQPRP | -0.119 |
| RRIRPRPPRLPRPRPRPCCDPRP | 0.249 |
| RRIRPRPPRLPRPRPRPCCGPRP | -0.0386 |
| RRIRPRPPRLPRPRPRPCDGPRP | 0.0661 |
| RRIRPRPPRLPRPRPRPCEAPRP | 0.0756 |
| RRIRPRPPRLPRPRPRPCEVPRP | 0.00799 |
| RRIRPRPPRLPRPRPRPCFLPRP | -0.382 |
| RRIRPRPPRLPRPRPRPCFVPRP | -0.18 |
| RRIRPRPPRLPRPRPRPCGEPRP | -0.0188 |
| RRIRPRPPRLPRPRPRPCGQPRP | 0.311 |
| RRIRPRPPRLPRPRPRPCHQPRP | 0.0122 |
| RRIRPRPPRLPRPRPRPCIIPRP | -0.438 |
| RRIRPRPPRLPRPRPRPCIYPRP | -0.536 |
| RRIRPRPPRLPRPRPRPCMSPRP | -0.0701 |
| RRIRPRPPRLPRPRPRPCPEPRP | -0.123 |
| RRIRPRPPRLPRPRPRPCQFPRP | -0.246 |
| RRIRPRPPRLPRPRPRPCQHPRP | -0.161 |
| RRIRPRPPRLPRPRPRPCQKPRP | -0.00783 |
| RRIRPRPPRLPRPRPRPCSIPRP | -0.232 |
| RRIRPRPPRLPRPRPRPCTKPRP | -0.244 |
| RRIRPRPPRLPRPRPRPCTMPRP | -0.191 |
| RRIRPRPPRLPRPRPRPCWNPRP | -0.0418 |
| RRIRPRPPRLPRPRPRPCYLPRP | -0.958 |
| RRIRPRPPRLPRPRPRPDCDPRP | 0.0888 |

| Sequence | shrunken log2 fold change |
| --- | --- |
| RRIRPRPPRLPRPRPRPDDSPRP | 0.0427 |
| RRIRPRPPRLPRPRPRPDETPRP | -0.088 |
| RRIRPRPPRLPRPRPRPDEWPRP | 0.0186 |
| RRIRPRPPRLPRPRPRPDFYPRP | -0.156 |
| RRIRPRPPRLPRPRPRPDGLPRP | -0.117 |
| RRIRPRPPRLPRPRPRPDGMPRP | -0.0319 |
| RRIRPRPPRLPRPRPRPDGPPRP | -0.101 |
| RRIRPRPPRLPRPRPRPDGWPRP | 0.354 |
| RRIRPRPPRLPRPRPRPDIDPRP | -0.144 |
| RRIRPRPPRLPRPRPRPDMAPRP | -0.119 |
| RRIRPRPPRLPRPRPRPDMSPRP | -0.303 |
| RRIRPRPPRLPRPRPRPDPCPRP | -0.0908 |
| RRIRPRPPRLPRPRPRPDRFPRP | -0.137 |
| RRIRPRPPRLPRPRPRPDSWPRP | 0.392 |
| RRIRPRPPRLPRPRPRPDTGPRP | 0.128 |
| RRIRPRPPRLPRPRPRPDTKPRP | -0.0208 |
| RRIRPRPPRLPRPRPRPDTPPRP | 0.0412 |
| RRIRPRPPRLPRPRPRPDYKPRP | -0.66 |
| RRIRPRPPRLPRPRPRPDYLPRP | -0.259 |
| RRIRPRPPRLPRPRPRPEADPRP | 0.0865 |
| RRIRPRPPRLPRPRPRPEAIPRP | 0.102 |
| RRIRPRPPRLPRPRPRPEDMPRP | -0.927 |
| RRIRPRPPRLPRPRPRPEDTPRP | 0.174 |
| RRIRPRPPRLPRPRPRPEDVPRP | -0.0168 |
| RRIRPRPPRLPRPRPRPEEGPRP | -0.0155 |
